According to US20260034246A1 (REGENXBIO, published 2026):

Columns and labels:
[1] = target: T1, Mouse Complement C5 Protein (mouse, UniProt P06684 19-1680, limits assumed, biotinylated in the Octet assay (sites not given)); assay: BLI (OctetRED384), biotinylated mouse C5 on SA biosensor, BB5.1 scFv.LH as analyte, 30 C
T1 construct: native C5 of normal mouse serum in the hemolysis assays; also called Mouse C5; mC5

[2] = target: T1, Mouse Complement C5 Protein; assay: BLI (OctetRED384), biotinylated mouse C5 on SA biosensor, BB5.1 IgG as analyte, 30 C
Protocol: (§1) The assay was performed at 30° C. and at 1000 rpm. Biotinylated mouse C5 antigen was firstly immobilized onto SA biosensor.

[3] = target: T1, Mouse Complement C5 Protein; assay: BLI (OctetRED384), biotinylated mouse C5 on SA biosensor, BB5.1-Fab-His6 as analyte, 30 C
Protocol: as §1

[4] = target: T2, Cyno Complement C5 Protein (cynomolgous macaque); assay: BLI (OctetRED384), biotinylated cyno C5 on SA biosensor, Crovalimab scFv.HL as analyte, 30 C
T2 construct: also called Cyno C5; Biotinylated cyno C5 antigen

[5] = target: T1, Mouse Complement C5 Protein; assay: BLI (OctetRED384), biotinylated mouse C5 on SA biosensor, Crovalimab scFv.HL as analyte, 30 C
Protocol: as §1

[6] = target: T2, Cyno Complement C5 Protein; assay: BLI (OctetRED384), biotinylated cyno C5 on SA biosensor, Crovalimab IgG as analyte, 30 C
Protocol: The assay was performed at 30° C. and at 1000 rpm. Biotinylated cyno C5 antigen was firstly immobilized onto SA biosensor.

[7] = target: T1, Mouse Complement C5 Protein; assay: BLI (OctetRED384), biotinylated mouse C5 on SA biosensor, Crovalimab IgG as analyte, 30 C
Protocol: as §1

[8] = target: T2, Cyno Complement C5 Protein; assay: BLI (OctetRED384), biotinylated cyno C5 on SA biosensor, Crovalimab-Fab-His6 as analyte, 30 C
[9] = target: T1, Mouse Complement C5 Protein; assay: BLI (OctetRED384), biotinylated mouse C5 on SA biosensor, Crovalimab-Fab-His6 as analyte, 30 C
Protocol: as §1

B1: BB5.1 scFv.LH (scFv)
scFv: NIMMTQSPSSLAVSAGEKVTMSCKSSQSVLYSSNQKNYLAWYQQKPGQSPKLLIYWASTRESGVPDRFTGSGSGTDFTLTISSVQAEDLAVYYCHQYLSSRTFGGGTKLEIKRGGGGSGGGGSGGGGSQVQLQQPGAELVRPGTSVKLSCKASGYTFTSSWMHWVKQRPGQGLEWIGVIDPSDSYTNYNQKFKGKATLTVDTSSSTAYMQLSSLTSEDSAVYYCARGGGSSYNRYFDVWGTGTTVTVSS
notes: also called Anti-mC5 scFV; BB5.1 scFv mAb
Kd [1]: 3.69 nM

B2: BB5.1 IgG (full-length mAb) (antibody, V domains shown)
VH: QVQLQQPGAELVRPGTSVKLSCKASGYTFTSSWMHWVKQRPGQGLEWIGVIDPSDSYTNYNQKFKGKATLTVDTSSSTAYMQLSSLTSEDSAVYYCARGGGSSYNRYFDVWGTGTTVTVSS
VL: NIMMTQSPSSLAVSAGEKVTMSCKSSQSVLYSSNQKNYLAWYQQKPGQSPKLLIYWASTRESGVPDRFTGSGSGTDFTLTISSVQAEDLAVYYCHQYLSSRTFGGGTKLEIKR
notes: Surrogate anti-mouse C5 mAb; purified recombinant protein expressed in HEK293 cells; also called Anti-mC5 IgG; BB5.1 full-length mAb
Kd [2]: 0.0121 nM

B3: BB5.1-Fab-His6 (Fab, V domains shown)
VH: QVQLQQPGAELVRPGTSVKLSCKASGYTFTSSWMHWVKQRPGQGLEWIGVIDPSDSYTNYNQKFKGKATLTVDTSSSTAYMQLSSLTSEDSAVYYCARGGGSSYNRYFDVWGTGTTVTVSS
VL: NIMMTQSPSSLAVSAGEKVTMSCKSSQSVLYSSNQKNYLAWYQQKPGQSPKLLIYWASTRESGVPDRFTGSGSGTDFTLTISSVQAEDLAVYYCHQYLSSRTFGGGTKLEIKR
notes: also called Anti-mC5 Fab; BB5.1 Fab mAb
Kd [3]: 3.47 nM

B4: Crovalimab scFv.HL (scFv)
scFv: QVQLVESGGGLVQPGRSLRLSCAASGFTVHSSYYMAWVRQAPGKGLEWVGAIFTGSGAEYKAEWAKGRVTISKDTSKNQVVLTMTNMDPVDTATYYCASDAGYDYPTHAMHYWGQGTLVTVSSGGGGSGGGGSGGGGSDIQMTQSPSSLSASVGDRVTITCRASQGISSSLAWYQQKPGKAPKLLIYGASETESGVPSRFSGSGSGTDFTLTISSLQPEDFATYYCQNTKVGSSYGNTFGGGTKVEIKR
notes: also called Anti-hC5 scFV; Crovalimab scFv mAb
Kd [4]: 0.0845 nM
Kd [5]: 4.54 nM

B5: Crovalimab IgG (full-length mAb) (antibody, V domains shown)
VH: QVQLVESGGGLVQPGRSLRLSCAASGFTVHSSYYMAWVRQAPGKGLEWVGAIFTGSGAEYKAEWAKGRVTISKDTSKNQVVLTMTNMDPVDTATYYCASDAGYDYPTHAMHYWGQGTLVTVSS
VL: DIQMTQSPSSLSASVGDRVTITCRASQGISSSLAWYQQKPGKAPKLLIYGASETESGVPSRFSGSGSGTDFTLTISSLQPEDFATYYCQNTKVGSSYGNTFGGGTKVEIKR
notes: also called Anti-hC5 IgG; Crovalimab full-length mAb
Kd [6]: 0.0131 nM
Kd [7]: 0.0229 nM

B6: Crovalimab-Fab-His6 (Fab, V domains shown)
VH: QVQLVESGGGLVQPGRSLRLSCAASGFTVHSSYYMAWVRQAPGKGLEWVGAIFTGSGAEYKAEWAKGRVTISKDTSKNQVVLTMTNMDPVDTATYYCASDAGYDYPTHAMHYWGQGTLVTVSS
VL: DIQMTQSPSSLSASVGDRVTITCRASQGISSSLAWYQQKPGKAPKLLIYGASETESGVPSRFSGSGSGTDFTLTISSLQPEDFATYYCQNTKVGSSYGNTFGGGTKVEIKR
notes: also called Anti-hC5 Fab; Crovalimab Fab mAb
Kd [8]: 0.0602 nM
Kd [9]: 4.14 nM
